Assay [1] deals with T1, KAAG1 disordered region peptide, PGAAAAHLPRWPPPQLAASRREA (biotin label).
T1 construct: also called KAAG1 Peptide
T1 peptide: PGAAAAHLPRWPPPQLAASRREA
The assay is described as follows: modified sandwich ELISA, grade by the table's key. On the procedure: (§1) Binder proteins were coated on the surface of a high binding capacity 96 well plate by incubating 100 μL of protein at 5 μg/mL in a coating solution (10 mM Tris pH 8.8, 50 mM NaCl), overnight at 4 C. The next morning, the coating solution was aspirated out and wells were washed once with 300 μL ELISA wash buffer (1×PBS, 0.05% Tween-20) and solution was aspirated out. The wells were blocked with 200 μL of a blocking buffer (1×PBS, 0.05% Tween-20, 3% BSA) at room temperature for 1 hour. After one hour, the blocking solution was aspirated out and 100 μL of biotinylated polypeptide in a binding buffer (1×PBS, 0.05% Tween-20, 0.5% BSA) at various concentrations was added to the appropriate well and incubated for 20 minutes. Peptide solution was aspirated out after 20 minutes and wells were washed 5 times with 300 μL of ELISA wash buffer. To detect the biotinylated peptide, 100 μL of streptavidin-HRP (50 ng/ml) was added to each well and incubated for 1 hour. The wells were subsequently washed 5 times with 300 μL of ELISA wash buffer. 100 μL of QuantaBlu Fluorogenic Peroxidase substrate solution was added to each well, incubated for 30 minutes and reaction stopped by adding 100 μL of stop solution. Fluorescent signal from each well was measured using a Biotek Cytation5 plate reader by exciting the fluorophore at […] and measuring emission at 420 nm. Fluorescent signals were plotted as a function of polypeptide concentration.

Assay [2] addresses T2, CD74 disordered region peptide (CLIP), PPKPVSKMRMATPLLMQALPMGALP (biotin label).
T2 construct: also called CD74 Peptide
T2 peptide: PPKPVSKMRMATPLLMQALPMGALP
The assay is described as follows: modified sandwich ELISA, fluorescence grade by the table's key. On the procedure:
as §1
For orientation: ELISA stands for enzyme-linked immunosorbent assay.

Assay [3] has as its target T3, GMERKFMSLQPSISVSEMEPNGTFSNNNSRNCTIENFKREFFP (biotinylated, position not given).
T3 construct: also called CYSLTR2 (longer peptide of the disordered region)
T3 peptide: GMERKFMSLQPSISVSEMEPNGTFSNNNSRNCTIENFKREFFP
The assay is described as follows: ELISA: scaffold coated on plate, biotinylated peptide titrated, streptavidin-HRP fluorescence. The protocol: as §1

The target in assay [4] is T1, KAAG1 disordered region peptide, …. The description is as above. On the procedure:
as §1

Assay [5] concerns the target T4, TNFRSF13B disordered region peptide, LPPELRRQRSGEVENNSDNSGRYQ (biotin label).
T4 construct: also called TNFRSF13B Peptide
T4 peptide: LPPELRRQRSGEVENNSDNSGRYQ
The assay is described as above. On the procedure:
as §1

Assay [6] addresses T5, CYSLTR2 short linear epitope peptide, SISVSEMEPNGTFSNNNSRNC (N-terminal biotin).
T5 peptide: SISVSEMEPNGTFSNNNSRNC
The description is as above. On the procedure: as §1

Assay [7] addresses T6, KCNA6 short linear epitope peptide, QQQEQQPASGGGGQNGQQAMS (biotin label).
T6 construct: also called KCNA6 Peptide
T6 peptide: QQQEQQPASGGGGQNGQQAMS
Described as above. The protocol:
as §1

In assay [8] the target is T7, CD40LG short linear epitope peptide, NKEETKKENSFEMQKGDQNPQIAAH (biotin label).
T7 construct: also called CD40LG Peptide
T7 peptide: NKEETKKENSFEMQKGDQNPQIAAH
The description is as above. On the procedure:
as §1

For assay [9], the target named is T8, Urotensin-2 receptor N-terminal peptide, MALTPESPSSFPGLAATGSSVPEPPGGPNATLNSSWASPTEPSSLEDLVATGTI (biotin label).
T8 construct: also called Urotensin IIR; GPCR2 (Urotensin II)
T8 peptide: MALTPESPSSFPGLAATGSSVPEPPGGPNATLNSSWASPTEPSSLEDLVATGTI
The assay is described as follows: modified sandwich ELISA, grade by the table's key. On the procedure: as §1

Assay [10] concerns the target T4, TNFRSF13B disordered region peptide, …. The assay is described as follows: modified sandwich ELISA, grade by the table's key. The protocol:
as §1

Assay [11] deals with T9, CYSLTR2 N-terminal disordered region peptide, MERKFMSLQPSISVSEMEPNGTFSNNNSRNCTIENFKREFFP (biotin label).
T9 construct: also called CysLT2; CysLT2r
T9 peptide: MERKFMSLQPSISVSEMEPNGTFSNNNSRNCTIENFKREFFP
The assay is described as follows: modified sandwich ELISA, fluorescence grade by the table's key. The protocol: as §1

B1: engineered scaffold protein S143 (designed binder)
chain: MGDTRPRFLWQLKFECHFFNGTERVRLLERCIYNQEESVRFDSDVGEYRAVTELGRPDAEYWNSQKDLLEQRRAAVDTYCRHNYGVGESFTVQRRVIKEEHVIIQAEFYLNPDQSGEFMFDFDGDEIFHVDMAKKETVWRLEEFGRFASFEAQGALANIAVDKANLEIMTKRSNYTPTINGGSHHHHHH
Turning to B1, in [1], the binding result is “no binding (tested: <5000 (fluorescence, key))”. In addition, the fluorescent signal in [2] was more than 400000 fluorescentsignal.

B2: engineered scaffold protein S193 (designed binder)
chain: MGSKARMATGALAQAGGSGGSMIKEEHVINQAEYYLNPDQSGEFKFDFDGDEIFHVDMAKKETVWRLEEFGRFASFEAQGALAHIAVDKANLEIMTKRSNYTPMGDTRPRFLWQLKYECHFFNGTERVRLNERCIYNQEESVRFDSDVGEYRAVTELGRPDAEQWNSQKDHLEQRRAAVDTKCRHNYGVGESFTVQGGSHHHHHH
Regarding B2, the binding result is given as “binds” in assay [3]; “no binding (tested: 10000 nM)” in [4]; “no binding (tested: 10000 nM)” in assay [5]; “binds” in assay [6]; “no binding (tested: 10000 nM)” in assay [7]; “no binding (tested: 10000 nM)” in [8].

B3: engineered scaffold protein S134 (designed binder)
chain: MVKYHHHHHHGGSENLYFQGMGDTRPRFLWQPKRECHFFNGTERVRFLDRYFYNQEESVRFDSDVGEFRAVTELGRPDAEYWNSQKDILEQARAAVDTYCRHNYGVVESFTVQRRVIKEEHVIIQAEFYLNPDQSGEFMFDFDGDEIFHVDMAKKETVWRLEEFGRFASFEAQGALANIAVDKANLEIMTKRSNYTPITN
As to B3, the binding result in [1] is recorded as “no binding (tested: <5000 (fluorescence, key))”. In [2], this molecule came in with a fluorescent signal of 100000 to 250000 fluorescentsignal.

B4: engineered scaffold protein S058 (designed binder)
chain: GSHSMRYNYTSVSRPGRGEPRFISEGYVDDTQFVRFDSDAASPREEPRAPWIEQEGPEYWDRNTQIYKAQAQTDRESLRNLRGYYNQSEAGSHTLQSMYGCDVGPDGRLLRGHDQYYYDGKDYISLNEDLRSWTAADTAAQITQRKWEAAREAEQRRAYLEGECVEWLRRYLENGKDKLERADGGSHHHHHHLE
Consider B4, for which the binding result in assay [9] is “no binding (tested: <5000 (fluorescence, key))”. Besides, the fluorescent signal in assay [2] is more than 400000 fluorescentsignal.

B5: engineered scaffold protein S065 (designed binder)
chain: GSHSMRYFYTSVSRPGRGEPRFISVGYVDDTQFVRFDSDAASPREEPRAPWIEQEGPEAWDRNTQIYKAQAQTDRESLRNLRGYYNQSEAGSHTLQSMYGCDVGPDGRLLRGHDQYAYDGKDSIALNEDLRSWTAADTAAQITQRYWEAAREAEQRRAYLEGECVEHLRRVLENGKDKLERADGGSHHHHHHLE
Turning to B5, the binding result in [9] is given as “no binding (tested: <5000 (fluorescence, key))”; in [10], “no binding (tested: <5000 (fluorescence, key))”; in assay [4], “no binding (tested: 10000 nM)”. The fluorescent signal in assay [2] is more than 400000 fluorescentsignal.

B6: engineered scaffold protein S098 (designed binder)
chain: PENYLFQGRQECNGTQFLERYIYNREEFVRFDEFRAVGRPDEEYWNSQKDILEEERAVPDRMCRHNYELGGPMTLQRRVQPRVNIKADHVSTYAAFVQRPFMFEFDEDEMFYVDLHLEEFGQAFSFEAQGGLANIAILNNNLNTRSNHTQATNDPPHHHHHHLE
In the case of B6, the binding result in [1] was “no binding (tested: <5000 (fluorescence, key))”; in assay [9], “no binding (tested: <5000 (fluorescence, key))”; in assay [10] it was “no binding (tested: <5000 (fluorescence, key))”. Also, the results for the fluorescent signal in assay [2] and in assay [11] were more than 400000 fluorescentsignal and 100000 to 250000 fluorescentsignal, respectively.

B7: S189 (designed binder)
single chain: MGIKEEHVINQAEYCLNPDQSGEFKFDFDGDEIFHVDMAKKETVWRLEEFGRFASFEAQGALAHIAVDCANLEIMTKRSNYTPMGDTRPRFLWQLKYECHFFNGTERVRLNERCIYNQEESVRFDSDVGEYRAVTELGRPDAEQWNSQKDHLEQRRAAVDTKCRHNYGVGESFTVQGGSHHHHHH
notes: also called engineered scaffold protein S189
B7: the binding result in assay [3] and in assay [6] was “binds” in each case.

B8: S180 (designed binder)
single chain: MKEEHVIIQAEFYLNPDQSGEFMFDFDGDEIFHVDMAKKETVWRLEEFGRFASFEAQGALANIAVDKANLEIMTKRSNYTPITNTRPRFLWQPKRECHFFNGTERVRFLDRYFYNQEESVRFDSDVGEFRAVTELGRPDAEYWNSQKDILEQARAAVDTYCRHNYGVVESFTVQRRVQGGSHHHHHHLE
notes: also called engineered scaffold protein S180
Regarding B8, the binding result in assay [3] and in assay [6] was “binds” in each case.

B9: engineered scaffold protein S078 (designed binder)
chain: GDTRPRFLWQLKFECHFFNGTERVRLLERCIYNQEESVRFDSDVGEYRAVTELGRPDAEYWNSQKDLLEQRRAAVDTYCRHNYGVGESFTVQRRSGGGIKEEHVIIQAEFYLNPDQSGEFMFDFDGDEIFHVDMAKKETVWRLEEFGRFASFEAQGALANIAVDKANLEIMTKRSNYTGGSHHHHHHLE
Regarding B9, the binding result in assay [1] is recorded as “no binding (tested: <5000 (fluorescence, key))”; in [9] it was “no binding (tested: <5000 (fluorescence, key))”; in assay [10] it was “no binding (tested: <5000 (fluorescence, key))”. The fluorescent signal in assay [2] was more than 400000 fluorescentsignal; in assay [11] it was 50000 to 100000 fluorescentsignal.

B10: engineered scaffold protein S068 (designed binder)
chain: GDTRPRFLWQLKFECHFFNGTERVRLLERCIYNQEESVRFDSDVGEYRAVTELGRPDAEYWNSQKDLLEQRRAAVDTYCRHNYGVGESFTVQRRVEPKVTVYPSKTQPLQHHNLLVCSVSGFYPGSIEVRWFRNGQEEKAGVVSTGLIQNGDWTFQTLVMLETVPRSGEVYTCQVEHPSVTSPLTVEWRASGGGGSGGGGSGGGGIKEEHVIIQAEFYLNPDQSGEFMFDFDGDEIFHVDMAKKETVWRLEEFGRFASFEAQGALANIAVDKANLEIMTKRSNYTPITNVPPEVTVLTNSPVELREPNVLICFIDKFTPPVVNVTWLRNGKPVTTGVSETVFLPREDHLFRKFHYLPFLPSTEDVYDCRVEHWGLDEPLLKHWEFDAPSGGSHHHHHHLE
Regarding B10, the binding result in assay [1] is “no binding (tested: <5000 (fluorescence, key))”; in assay [9], “no binding (tested: <5000 (fluorescence, key))”; in assay [10], “no binding (tested: <5000 (fluorescence, key))”. The fluorescent signal in [2] was more than 400000 fluorescentsignal.

B11: engineered scaffold protein S077 (designed binder)
chain: KPVSKMRMATPLLMQALPMASGGGGSGGGGDTRPRFLWQLKFECHFFNGTERVRLLERCIYNQEESVRFDSDVGEYRAVTELGRPDAEYWNSQKDLLEQRRAAVDTYCRHNYGVGESFTVQRRSGGGIKEEHVIIQAEFYLNPDQSGEFMFDFDGDEIFHVDMAKKETVWRLEEFGRFASFEAQGALANIAVDKANLEIMTKRSNYTGGSHHHHHHLE
As to B11, the binding result in assay [1] is listed as “no binding (tested: <5000 (fluorescence, key))”; in [9], “no binding (tested: <5000 (fluorescence, key))”; in [10], “no binding (tested: <5000 (fluorescence, key))”. Besides, the fluorescent signal is more than 400000 fluorescentsignal in assay [2] and 100000 to 250000 fluorescentsignal in assay [11].

For the origin of these results see US20250387450A1 (AIKIUM, published 2025).
